Reference: patent US20110152173A1 (EMERGENT PRODUCT DEVELOPMENT SEATTLE, published 2011)

Legend:
mouse RANKL = target: T1, mouse RANKL (mouse, UniProt O35235 158-316, limits assumed); assay: ELISA: plate-coated ligand, Xceptor detected with HRP anti-human IgG-Fc
T1 construct: also called mRANKL
T1 sequence (looked up): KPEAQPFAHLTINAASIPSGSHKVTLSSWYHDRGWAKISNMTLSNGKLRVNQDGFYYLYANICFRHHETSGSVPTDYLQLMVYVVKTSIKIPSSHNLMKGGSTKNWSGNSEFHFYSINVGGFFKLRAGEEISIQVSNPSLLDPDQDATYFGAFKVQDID
Protocol: (§1) Mouse and human ligands (R&D Systems, Minnesota, MN) were added to wells of a 96-well plate at a concentration of 1 μg/ml in PBS (100 μl/well). Plates were incubated at 4° C. overnight. After washing five times with PBS-T, 250 μl Blocking Buffer (PBS-T with 3% BSA) was added to each well, and the plate covered and incubated at room temperature (RT) for 2 hours. Serial three fold dilutions of xceptors were made in Working Buffer (PBS-T with 1% BSA) starting at 300 ng/ml. As a negative control, an irrelevant xceptor was used. The plate was incubated at RT for 1 hour. After washing five times with PBS-T, 100 μl per well of HRP-conjugated anti-human IgG-Fc (1:5000 in Working buffer) was added, the plate covered, and incubated at RT for 1 hour. After washing five times with PBS-T, 100 µl of Quant-Blu substrate (Pierce, Rockford, Ill.) was added to each well. The plate was incubated at RT for 10-30 minutes, and fluorescence measured at 325/420 nm.

human RANKL = target: T2, human RANKL (human, UniProt O14788 140-317, limits assumed); assay: as above
T2 sequence (looked up): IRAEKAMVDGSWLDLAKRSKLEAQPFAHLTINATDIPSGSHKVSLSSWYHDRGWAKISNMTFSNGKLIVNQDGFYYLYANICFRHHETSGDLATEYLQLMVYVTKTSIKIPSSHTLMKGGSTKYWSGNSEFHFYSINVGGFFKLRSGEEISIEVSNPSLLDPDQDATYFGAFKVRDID
Protocol: as §1

human IL7 = target: T3, human IL7 (human, UniProt P13232 26-177); assay: as above
T3 sequence (looked up): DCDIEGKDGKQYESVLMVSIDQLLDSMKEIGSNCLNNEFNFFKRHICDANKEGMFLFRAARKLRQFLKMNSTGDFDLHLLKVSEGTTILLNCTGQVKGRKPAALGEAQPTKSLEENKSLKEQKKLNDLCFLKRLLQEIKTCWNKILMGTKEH
Protocol: as §1

TRU(XT6)-1042 = target: T4, TRU(XT6)-1042; assay: ELISA: Xceptor captured on anti-human IgG-Fc, sIL-6R added, detected with anti-IL-6R-biotin
T4 construct: not trimmed; also called Xceptor TNFRSF1B::anti-HIL6
Protocol: Added to each well of a 96-well plate was 100 μl goat anti-human IgG-Fc (ICN Pharmaceuticals, Costa Mesa, Calif.) from a 2 μg/ml solution in PBS, pH 7.2-7.4. The plates were covered, and incubated overnight at 4° C. After washing four times with PBS-T, 250 μl Blocking buffer (PBS-T with 3% BSA or 10% normal goat serum) was added to each well, the plate was covered, and incubated at room temperature for 2 hours (or at 4° C. overnight). […] After washing the plate five times with PBS-T, added in duplicate wells was 100 μl/well recombinant human sIL-6R(R&D Systems) from a […] solution in Working buffer, the plate was covered, and incubated at room temperature for about 1 to 2 hours. After washing the plate five times with PBS-T, added 100 μl/well anti-human IL-6R-biotin (R&D Systems) from a 100 ng/ml solution in Working buffer, the plate was covered, and incubated at room temperature for about 1 to 2 hours. After washing the plate five times with PBS-T, 100 μl per well horse radish peroxidase-conjugated streptavidin (Zymed, San Francisco, Calif.) diluted 1:4,000 in Working buffer was added, the plate was covered, and incubated at room temperature for 30 minutes. After washing the plate six times with PBS-T, 100 μl per well 3,3,5,5-tetramentylbenzidine (TMB) substrate solution (Pierce, Rockford, Ill.) was added for about 3 to 5 minutes and then the reaction was stopped with 50 μl Stop buffer (1N H₂SO₄) per well. The absorbance of each well was read at 450 nm.

B1: Xceptor comprising a TNFRSF1B ectodomain and an OPG ectodomain (Fc fusion)
chain: LPAQVAFTPYAPEPGSTCRLREYYDQTAQMCCSKCSPGQHAKVFCTKTSDTVCDSCEDSTYTQLWNWVPECLSCGSRCSSDQVETQACTREQNRICTCRPGWYCALSKQEGCRLCAPLRKCRPGFGVARPGTETSDVVCKPCAPGTFSNTTSSTDICRPHQICNVVAIPGNASMDAVCTSTSPTRSMAPGAVHLPQPVSTRSQHTQPTPEPSTAPSTSFLLPMGPSPPAEGSTGDTGEPKSSDKTHTCPPCPAPEAAGAPSVFLFPPKPKDTLMISRTPEVTCVVVDVSHEDPEVKFNWYVDGVEVHNAKTKPREEQYNSTYRVVSVLTVLHQDWLNGKAYACAVSNKALPAPIEKTISKAKGQPREPQVYTLPPSRDELTKNQVSLTCLVKGFYPSDIAVEWESNGQPENNYKTTPPVLDSDGSFFLYSKLTVDKSRWQQGNVFSCSVMHEALHNHYTQKSLSLSPGQRHNNSSLNTGTQMAGHSPNSETFPPKYLHYDEETSHQLLCDKCPPGTYLKQHCTAKWKTVCAPCPDHYYTDSWHTSDECLYCSPVCKELQYVKQECNRTHNRVCECKEGRYLEIEFCLKHRSCPPGFGVVQAGTPERNTVCKRCPDGFFSNETSSKAPCRKHTNCSVFGLLLTQKGNATHDNICSGNSESTQKCGIDVTLCEEAFFRFAVPTKFTPNWLSVLVDNLPGTKVNAESVERIKRQHSSQEQTFQLLKLWKHQNKDQDIVKKIIQDIDLCENSVQRHIGHANLTFEQLRSLMESLPGKKVGAEDIEKTIKACKPSDQILKLLSLWRIKNGDQDTLKGLMHALKHSKTYHFPKTVTQSLKKTIRFLHSFTMYKLYQKLFLEMIGNQVQSVKISCL
notes: also called TNFR × OPG
- binding result (mouse RANKL): binds
- binding result (human RANKL): binds

B2: Xceptor comprising a TNFRSF1B ectodomain and an IL7R ectodomain (Fc fusion)
chain: LPAQVAFTPYAPEPGSTCRLREYYDQTAQMCCSKCSPGQHAKVFCTKTSDTVCDSCEDSTYTQLWNWVPECLSCGSRCSSDQVETQACTREQNRICTCRPGWYCALSKQEGCRLCAPLRKCRPGFGVARPGTETSDVVCKPCAPGTFSNTTSSTDICRPHQICNVVAIPGNASMDAVCTSTSPTRSMAPGAVHLPQPVSTRSQHTQPTPEPSTAPSTSFLLPMGPSPPAEGSTGDTGEPKSSDKTHTCPPCPAPEAAGAPSVFLFPPKPKDTLMISRTPEVTCVVVDVSHEDPEVKFNWYVDGVEVHNAKTKPREEQYNSTYRVVSVLTVLHQDWLNGKAYACAVSNKALPAPIEKTISKAKGQPREPQVYTLPPSRDELTKNQVSLTCLVKGFYPSDIAVEWESNGQPENNYKTTPPVLDSDGSFFLYSKLTVDKSRWQQGNVFSCSVMHEALHNHYTQKSLSLSPGQRHNNSSLNTGTQMAGHSPNSESGYAQNGDLEDAELDDYSFSCYSQLEVNGSQHSLTCAFEDPDVNITNLEFEICGALVEVKCLNFRKLQEIYFIETKKFLLIGKSNICVKVGEKSLTCKKIDLTTIVKPEAPFDLSVVYREGANDFVVTFNTSHLQKKYVKVLMHDVAYRQEKDENKWTHVNLSSTKLTLLQRKLQPAAMYEIKVRSIPDHYFKGFWSEWSPSYYFRTPEINNSSGEMDP
notes: also called TNFR × IL7R
- binding result (human IL7): binds

B3: recombinant human sIL-6R (receptor)
chain: LAPRRCPAQEVARGVLTSLPGDSVTLTCPGVEPEDNATVHWVLRKPAAGSHPSRWAGMGRRLLLRSVQLHDSGNYSCYRAGRPAGTVHLLVDVPPEEPQLSCFRKSPLSNVVCEWGPRSTPSLTTKAVLLVRKFQNSPAEDFQEPCQYSQESQKFSCQLAVPEGDSSFYIVSMCVASSVGSKFSKTQTFQGCGILQPDPPANITVTAVARNPRWLSVTWQDPHSWNSSFYRLRFELRYRAERSKTFTTWMVKDLQHHCVIHDAWSGLRHVVQLRAQEEFGQGEWSEWSPEAMGTPWTESRSPPAENEVSTPMQALTTNKDDDNILFRDSANATSLPVQD
notes: Bought; also called human soluble IL6R
- binding result (TRU(XT6)-1042): no binding
